Results from patent publication US20200150118A1.

Molecular target: T1, S100A9 (alarmin) in autologous bone marrow plasma of MDS patients (human) (UniProt P06702)
T1 sequence (looked up): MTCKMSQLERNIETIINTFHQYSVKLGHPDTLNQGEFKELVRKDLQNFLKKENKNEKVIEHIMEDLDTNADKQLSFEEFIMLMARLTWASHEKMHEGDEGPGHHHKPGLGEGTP
Test: cell-based or functional assay

reduction of the fraction of pyroptotic cells, CD33+ cells (MDS BM-MNC in autologous BM plasma, flow cytometry): 68%
reduction of the fraction of pyroptotic cells, CD71+ cells (MDS BM-MNC in autologous BM plasma, flow cytometry): 64%
reduction of the fraction of pyroptotic cells, progenitor cells (MDS BM-MNC in autologous BM plasma, flow cytometry): 23%
reduction of the fraction of pyroptotic cells, stem cells (MDS BM-MNC in autologous BM plasma, flow cytometry): 44%
Substance: S100A9 high-affinity chimeric (CD33-IgG1) decoy receptor (from UniProt P20138 18-259) (Fc fusion)
